Results taken from US20200024330A1.

Tests used:
Assay in all cases: cell-based or functional assay
[1] = biological target: Env of the clade AE HIV-1 pseudoviruses of the cross-clade 162-pseudovirus panel (n = 10)
[2] = biological target: HIV-1 92BR020 envelope glycoprotein (Env) (HIV-1)
[3] = biological target: HIV-1 92RW020 envelope glycoprotein (Env) (HIV-1)
[4] = biological target: HIV-1 93IN905 envelope glycoprotein (Env) (HIV-1)
[5] = biological target: HIV-1 93UG077 envelope glycoprotein (Env) (HIV-1)
[6] = biological target: HIV-1 94UG103 envelope glycoprotein (Env) (HIV-1)
[7] = biological target: HIV-1 APV13 envelope glycoprotein (Env) (HIV-1)
[8] = biological target: HIV-1 APV17 envelope glycoprotein (Env) (HIV-1)
[9] = biological target: HIV-1 APV6 envelope glycoprotein (Env) (HIV-1)
[10] = biological target: HIV-1 JRCSF envelope glycoprotein (Env) (HIV-1) (UniProt P20871)
[11] = biological target: HIV-1 MGRM-A-010 envelope glycoprotein (Env) (HIV-1)
[12] = biological target: HIV-1 MGRM-C-027 envelope glycoprotein (Env) (HIV-1)
[13] = biological target: HIV-1 MGRM-C-028 envelope glycoprotein (Env) (HIV-1)
[14] = biological target: HIV-1 NL43 envelope glycoprotein (Env) (HIV-1)
[15] = biological target: HIV-1 Env of isolate 92RW008 (HIV-1)
[16] = biological target: HIV-1 Env of isolate 92UG031 (HIV-1)
[17] = biological target: HIV-1 Env of isolate 92UG037 (HIV-1)
[18] = biological target: HIV-1 Env of isolate 92WR009 (HIV-1)
[19] = biological target: HIV-1 Env of isolate 92WR021 (HIV-1)
[20] = biological target: HIV-1 Env of isolate 92WR024 (HIV-1)
[21] = biological target: HIV-1 Env of isolate 92WR026 (HIV-1)
[22] = biological target: HIV-1 Env of isolate 93WR029 (HIV-1)
[23] = biological target: HIV-1 Env of isolate 94KE105 (HIV-1)
[24] = biological target: HIV-1 Env of isolate 94UG103 (HIV-1)
[25] = biological target: HIV-1 Env of isolate CMU02 (HIV-1)
[26] = biological target: HIV-1 Env of isolate MGRM-A-002 (HIV-1)
[27] = biological target: HIV-1 Env of isolate MGRM-A-003 (HIV-1)
[28] = biological target: HIV-1 Env of isolate MGRM-A-005 (HIV-1)
[29] = biological target: HIV-1 Env of isolate MGRM-A-006 (HIV-1)
[30] = biological target: HIV-1 Env of isolate MGRM-A-007 (HIV-1)
[31] = biological target: HIV-1 Env of isolate MGRM-A-011 (HIV-1)
[32] = biological target: HIV-1 Env of isolate MGRM-A-012 (HIV-1)
[33] = biological target: HIV-1 Env of isolate MGRM-A-013 (HIV-1)
[34] = biological target: HIV-1 Env of isolate MGRM-A-014 (HIV-1)
[35] = biological target: HIV-1 Env of isolate MGRM-AE-001 (HIV-1)
[36] = biological target: HIV-1 Env of isolate MGRM-AE-002 (HIV-1)
[37] = biological target: HIV-1 Env of isolate MGRM-AE-003 (HIV-1)
[38] = biological target: HIV-1 Env of isolate VLGCA1 (HIV-1)

B1: PGT-131 (antibody, V domains shown)
VH: QVQLQESGPGLVKPSETLSLTCTVSGDSINTGHHYWGWVRQVPGKGPEWIAHIHYNTAVLHNPALKSRVTISIFTLKNLITLSLSNVTAADTAVYFCVRSGGDILYYIEWQKPHWFYPWGPGILVTVSS
VL: QSALTQPPSASGSLGQSLTISCSGTGSDIGSWNFVSWYQQFPGRAPNLIIFEVNRRRSGVPDRFSGSKSGNTASLTVSGLRSEDEAEYFCSSLSGRWDIVFGGGTKVTVL
Median IC50 against viruses neutralized with an IC50 <50 µg/ml [1]: 0.08 µg/mL

B2: PGT-130 (antibody, V domains shown)
VH: QVQLQESGPGLVKPAETLSLTCSVSGESINTGHYYWGWVRQVPGKGLEWIGHIHYTTAVLHNPSLKSRLTIKIYTLRNQITLRLSNVTAADTAVYHCVRSGGDILYYYEWQKPHWFSPWGPGIHVTVSS
VL: QSALTQPPSASGSLGQSVTISCNGTSSDIGGWNFVSWYQQFPGRAPRLIIFEVNKRPSGVPGRFSGSKSGNSASLTVSGLQSDDEGQYFCSSLFGRWDVVFGGGTKLTVL
Median IC50 against viruses neutralized with an IC50 <50 µg/ml [1]: 0.17 µg/mL | IC50 neutralization [2]: 1.12 µg/mL | IC50 neutralization [3]: 0.014 µg/mL | IC50 neutralization [4]: 0.0182 µg/mL | IC50 neutralization [5]: > 10 µg/mL | IC50 neutralization [6]: 0.635 µg/mL | IC50 neutralization [7]: 0.0345 µg/mL | IC50 neutralization [8]: > 10 µg/mL | IC50 neutralization [9]: > 10 µg/mL | IC50 neutralization [10]: 0.0089 µg/mL | IC50 neutralization [11]: 0.0054 µg/mL | IC50 neutralization [12]: 0.0052 µg/mL | IC50 neutralization [13]: > 10 µg/mL | IC50 neutralization [14]: > 10 µg/mL

B3: PGT-126 (antibody, V domains shown)
VH: QPQLQESGPGLVEASETLSLTCTVSGDSTAACDYFWGWVRQPPGKGLEWIGGLSHCAGYYNTGWTYHNPSLKSRLTISLDTPKNQVFLKLNSVTAADTAIYYCARFDGEVLVYHDWPKPAWVDLWGRGTLVTVSS
VL: QSALTQPPSASGSPGQSISISCTGTSNRFVSWYQQHPGKAPKLVIYGVNKRPSGVPDRFSGSKSGNTASLTVSGLQTDDEAVYYCSSLVGNWDVIFGGGTKLTVL
Median IC50 against viruses neutralized with an IC50 <50 µg/ml [1]: 1.77 µg/mL | IC50 neutralization [2]: 0.0163 µg/mL | IC50 neutralization [3]: 0.0046 µg/mL | IC50 neutralization [4]: 0.0194 µg/mL | IC50 neutralization [5]: 0.0256 µg/mL | IC50 neutralization [6]: 0.0091 µg/mL | IC50 neutralization [7]: 0.012 µg/mL | IC50 neutralization [8]: 0.501 µg/mL | IC50 neutralization [9]: 0.0249 µg/mL | IC50 (µg/mL), pseudovirus neutralization [15]: 0.008 µg/mL | IC50 (µg/mL), pseudovirus neutralization [16]: > 50 µg/mL | IC50 (µg/mL), pseudovirus neutralization [17]: 0.011 µg/mL | IC50 (µg/mL), pseudovirus neutralization [18]: > 50 µg/mL | IC50 (µg/mL), pseudovirus neutralization [19]: 0.006 µg/mL | IC50 (µg/mL), pseudovirus neutralization [20]: 42 µg/mL | IC50 (µg/mL), pseudovirus neutralization [21]: 0.008 µg/mL | IC50 (µg/mL), pseudovirus neutralization [22]: > 50 µg/mL | IC50 (µg/mL), pseudovirus neutralization [23]: 0.006 µg/mL | IC50 (µg/mL), pseudovirus neutralization [24]: 0.008 µg/mL | IC50 (µg/mL), pseudovirus neutralization [25]: > 50 µg/mL | IC50 (µg/mL), pseudovirus neutralization [26]: 0.015 µg/mL | IC50 (µg/mL), pseudovirus neutralization [27]: > 50 µg/mL | IC50 (µg/mL), pseudovirus neutralization [28]: > 50 µg/mL | IC50 (µg/mL), pseudovirus neutralization [29]: > 50 µg/mL | IC50 (µg/mL), pseudovirus neutralization [30]: > 50 µg/mL | IC50 (µg/mL), pseudovirus neutralization [31]: > 50 µg/mL | IC50 (µg/mL), pseudovirus neutralization [32]: 0.097 µg/mL | IC50 (µg/mL), pseudovirus neutralization [33]: 0.006 µg/mL | IC50 (µg/mL), pseudovirus neutralization [34]: 0.01 µg/mL | IC50 (µg/mL), pseudovirus neutralization [35]: 9.68 µg/mL | IC50 (µg/mL), pseudovirus neutralization [36]: > 50 µg/mL | IC50 (µg/mL), pseudovirus neutralization [37]: > 50 µg/mL | IC50 (µg/mL), pseudovirus neutralization [38]: > 50 µg/mL | IC50 neutralization [10]: 0.0061 µg/mL | IC50 neutralization [11]: 0.0033 µg/mL | IC50 neutralization [12]: 1.14 µg/mL | IC50 neutralization [13]: 0.283 µg/mL | IC50 neutralization [14]: > 10 µg/mL
